These results are taken from US20250197487A1 (AKESO BIOPHARMA, published 2025).

In test [1] the target is T1, PD-1 on the surface of 293T-PD-1 cells (UniProt Q15116 25-288, limits assumed).
T1 construct: whole, on cells
In words: FACS (2nd), 293T-PD-1 cells, antibody 0.14 nM. As to the method:
(§1) Then PBS was used for washing, and 300 μL of PBSA was used to resuspend the cells, and fluorescence signals (MFI) were detected with FITC channel on a flow cytometer.

The target in test [2] is T1, PD-1 on the surface of 293T-PD-1 cells. In words: FACS (2nd), 293T-PD-1 cells, antibody 0.41 nM. As to the method:
as §1

Test [3] concerns the target T2, fusion protein PD-1-mFc (human, UniProt Q15116 25-170).
T2 construct: also called human PD-1-mFc; not shown: mFc (Fc of mouse IgG)
In words: indirect ELISA (2nd), PD-1-mFc coat 0.5 µg/mL. As to the method: (§2) The microplate was coated with human PD-1-mFc and incubated overnight at 4° C. After being blocked with 1% BSA at 37° C. for 2 hours, the microplate was added with antibody, and then incubated at 37° C. for 30 minutes. […] After the microplate was washed and patted dry, TMB (Neogen, 308177) was added for color developing for 5 minutes, and then stop solution was added to terminate the color development. Then the microplate was put into a microplate reader immediately, and the OD value of each well in the microplate was read at 450 nm. SoftMax Pro 6.2.1 was used to analyze and process the data.

Test [4] has as its target T1, PD-1 on the surface of 293T-PD-1 cells. In words: FACS (2nd), 293T-PD-1 cells, antibody 1.23 nM. As to the method:
as §1

Test [5] shares this target. The experiment in a line: FACS, 293T-PD-1 cells. As to the method: as §1
Test [6] has the same target. In words: FACS (2nd), 293T-PD-1 cells. As to the method: as §1
Test [7] has as its target T2, fusion protein PD-1-mFc. The experiment in a line: indirect ELISA, PD-1-mFc coat 0.5 µg/mL. As for the experimental part: as §2
The target of test [8] is T1, PD-1 on the surface of 293T-PD-1 cells. The experiment in a line: FACS, 293T-PD-1 cells, antibody 3.70 nM. As to the method: as §1
In general terms: In flow cytometry, cells or beads pass a laser one at a time.

For test [9] the target is unchanged. The experiment in a line: FACS, 293T-PD-1 cells, antibody 33.33 nM. As for the experimental part:
as §1

For test [10] the target is unchanged. The experiment in a line: competitive FACS, 293T-PD-1 cells, competitor PD-L1-mFc 20 nM. As for the experimental part: (§3) Then 500 μL of 1% PBSA was added, and the mixture was centrifuged at 5600 rpm for 5 minutes to remove the supernatant. 100 μL of FITC […] anti mouse antibody diluted at a ratio of 1:500 was then added into each tube, and the mixture was incubated on ice for 40 minutes in the absence of light after being mixed well. Then the mixture was centrifuged, washed and resuspended, and then transferred to a loading tube for testing.

Test [11] shares this target. The experiment in a line: FACS, 293T-PD-1 cells, antibody 11.11 nM. As to the method: as §1
Test [12] has the same target. In words: FACS, 293T-PD-1 cells, antibody 0.41 nM. As for the experimental part:
as §1

The target in test [13] is T2, fusion protein PD-1-mFc. The experiment in a line: BLI (Fortebio), antibody on AHC sensor, PD-1-mFc 0.62-50 nM, 1:1 fit. As for the experimental part: The sample dilution buffer was PBS (0.02% Tween-20, 0.1% BSA, pH7.4). 5 μg/mL antibody was immobilized to an AHC sensor with the immobilization height being about […]. The sensor was equilibrated in a buffer for 60 s, and the antibody immobilized to the sensor bound to PD-1-mFc at a concentration of 0.62-50 nM (three-fold gradient dilution) for 120 s, and then the antigen and antibody dissociated in the buffer for 300 s. The data were analyzed by 1:1 model fitting to obtain affinity constants. The data acquisition software was Fortebio Data Acquisition 7.0, and the data analysis software was Fortebio Data Analysis 7.0.
For orientation: BLI is a label-free optical method that tracks binding on a fibre tip over time.

In test [14] the target is T1, PD-1 on the surface of 293T-PD-1 cells. The experiment in a line: FACS (2nd), 293T-PD-1 cells, antibody 3.7 nM. As to the method:
as §1

The target is the same in test [15]. The experiment in a line: FACS (2nd), 293T-PD-1 cells, antibody 100 nM. As for the experimental part: as §1
The target is the same in test [16]. In words: FACS, 293T-PD-1 cells, antibody 0.14 nM. As for the experimental part: as §1
Test [17] shares this target. The experiment in a line: FACS (2nd), 293T-PD-1 cells, antibody 30 nM. As for the experimental part: as §1
For test [18] the target is unchanged. The experiment in a line: competitive FACS (2nd), 293T-PD-1 cells, competitor PD-L1. As for the experimental part: as §3
The target is the same in test [19]. In words: FACS, 293T-PD-1 cells, antibody 1.23 nM. As to the method:
as §1

A further test concerns the target T3, fusion protein PD-1-hFc (UniProt Q15116 25-170).
T3 construct: not shown: hFc (Fc of human IgG)
In words: competitive ELISA, PD-1-hFc coat 0.5 µg/mL, competitor PD-L1-mFc 0.3 µg/ml. As for the experimental part:
The microplate was coated with PD-1-hFc and incubated overnight at 4° C. […] After incubation at 37° C. for 30 minutes, the microplate was washed and patted dry. Then enzyme-labeled secondary antibody was added, and the microplate was incubated at 37° C. for 30 minutes. After the microplate was washed and patted dry, TMB was added for color developing for 5 minutes, and then stop solution was added to terminate the color development. […] SoftMax Pro 6.2.1 was used to analyze and process the data.
For orientation: ELISA stands for enzyme-linked immunosorbent assay.

The target in test [20] is T1, PD-1 on the surface of 293T-PD-1 cells. The experiment in a line: FACS, 293T-PD-1 cells, antibody 100 nM. As to the method:
as §1

The target is the same in test [21]. The experiment in a line: FACS (2nd), 293T-PD-1 cells, antibody 0.014 nM. As to the method: as §1
The target is the same in test [22]. The experiment in a line: FACS (2nd), 293T-PD-1 cells, antibody 11 nM. As to the method:
as §1

For test [23], the target named is T2, fusion protein PD-1-mFc. The experiment in a line: indirect ELISA, antibody 0 (blank).

T1 sequence (Q15116 25-288 limits assumed): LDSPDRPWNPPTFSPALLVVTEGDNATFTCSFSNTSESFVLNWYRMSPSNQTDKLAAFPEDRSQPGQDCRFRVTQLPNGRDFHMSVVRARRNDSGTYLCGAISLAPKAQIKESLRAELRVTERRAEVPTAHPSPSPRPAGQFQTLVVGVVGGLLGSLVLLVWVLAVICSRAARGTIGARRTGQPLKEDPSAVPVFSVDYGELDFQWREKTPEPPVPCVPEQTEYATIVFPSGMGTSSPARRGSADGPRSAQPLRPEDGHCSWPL
T2 sequence (Q15116 25-170): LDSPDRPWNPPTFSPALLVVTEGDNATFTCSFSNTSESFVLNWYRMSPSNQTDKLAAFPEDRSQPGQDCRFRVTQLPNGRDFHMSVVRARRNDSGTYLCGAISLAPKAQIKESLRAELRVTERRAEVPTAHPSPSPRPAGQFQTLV
T3 sequence (Q15116 25-170): as above

B1: anti-PD-1 humanized antibody 14C12H1L1 (antibody, V domains shown)
VH: EVQLVESGGGLVQPGGSLRLSCAASGFAFSSYDMSWVRQAPGKGLDWVATISGGGRYTYYPDSVKGRFTISRDNSKNNLYLQMNSLRAEDTALYYCANRYGEAWFAYWGQGTLVTVSS
VL: DIQMTQSPSSMSASVGDRVTFTCRASQDINTYLSWFQQKPGKSPKTLIYRANRLVSGVPSRFSGSGSGQDYTLTISSLQPEDMATYYCLQYDEFPLTFGAGTKLELK
For the molecule B1, the MFI in test [1] is 29.6; in test [2] it was 69.2; in test [4], 176; in test [8], 409; in test [9], 655; in test [11], 600. In addition, the MFI in [12] came out at 99.7; in test [14] it was 423; in test [15], 814; in test [16], 48.1; in test [17], 831; in test [19], 202. Also, the MFI in [20] is 671; in test [21], 7.4; in test [22], 868. Also, the EC50 (in general, the concentration giving half of the maximal effect) with fusion protein PD-1-mFc [3] was found to be 0.045 nM; in test [5], 2.9 nM; in test [6], 3.61 nM; in the test with fusion protein PD-1-mFc [7], 0.037 nM; in test [10], 4.37 nM; in test [18], 9.21 nM. This molecule gave an EC50 with fusion protein PD-1-hFc of 0.745 nM. For the same molecule, the affinity with fusion protein PD-1-mFc [13], expressed as Kd, was 0.164 nM. Besides, the “OD 450 nm” value with fusion protein PD-1-mFc [23] is 0.053.
